Laboratory results as given in the nanobody polyreactivity screen of Harvey et al. (2022).

Experiment: yeast display, Sf9 membrane polyspecificity reagent, FACS + sequencing; frameworks hold sequencing errors
Outline: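 Nanobodies came from a synthetic yeast display library in Saccharomyces cerevisiae BJ5465, induced with galactose for 36–48 hours and stained for 1 hour at 4 °C with 10% biotinylated, detergent-solubilized Sf9 membrane reagent. Cells were enriched on streptavidin microbeads and then FACS-sorted, with low and high (top ~1%) gates set on anti-HA fluorescence for expression and streptavidin fluorescence for reagent binding. Each polyreactivity label reflects the gate a clone came from. Genes were amplified by colony PCR, sequenced by MiSeq 2 × 250 and filtered by CDR length.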

| Sequence | polyreactivity (PSR sort gate) |
| --- | --- |
| QVQLVESGGGLVQAGGSLRLSCAASGSTFGYYAMGWYRQAPGKERELVATINWSGGSTYYADSEKGRFTISRDNAKNTVYLQMISLKPEDTAVYYCAADPYLQYYWAYDYWGQGTQVTVSS | low polyreactivity |
| QVQLVESGGGLVQAGGSLRLSCAASGITFDNYAMGWYRQAPGKEWELVAAISSDDNTTYADSVKGRFTISRDNAKNTVYLQMNSLKPEDSAVYYCAADSRIYGYWEYDYCGQGTQVTVSS | low polyreactivity |
| QVQLVESGGGLVQAGGSLRLSCAASGRIIWSNAMGWYRQAPGKERELVAGITGSGGNTYYADSVKGRFTISRDNAKNTVYLHMNSLKPEDTAVYYCNARSGSRPSSSYRYDYWGQGTQVTVSS | low polyreactivity |
| QVQLVESGGGLVQAGGSLRLICADSGRILGINAMGWYRQAPGKERELVAAISSGGSTYYADSVKGRFTISRDNAKNTVYLQMNSLKPEDTAVYYCNVGSYAGWSDHPRYGYWGQGTQVTVSS | high polyreactivity |
| QVQLVESGGGLVQAGGSLRLSCAASGGNFVSYAMGWYRQAPGKERDLVARINSVDGTNYADSVKGRFTISRDNAKNTVYLQMNSLKPEDTAVYYCATGGYYSAIVYGGYDYWGQGTQVTVSS | low polyreactivity |
| QVQLVESGGGLVQAGGSLRLSCAASGRTFTRYAMGWYRQAPGKERELVATITRGGSTNYADSVKGRFTISRDNAKNTVYLQMNSLKPEDTAVYYCAAGYFIRTRSRYRYDYWGQCTQVTVSS | high polyreactivity |
| QVQLVESGGGLVQAGGSLRLSCAASGSIFKENAMGWYRQAPGKERELVAAITSSGGNTYYADSVKGRFTISRDHAKNTVYIQMNSLKPEDTAVYYCNAGVPVRSTTTDGYWGQGTQVNVSS | high polyreactivity |
| QVQLVESGGGLVQAGGSLRLSCAASGRTLRYYAMGWYRQAPGKERELVAAITKSGGSTYYADSVKGRFTISRDNAKNTVYLQMNSLKPEDTAVYYCNKVTYSRAQYIGGDGYYWGLGTQVTVSS | high polyreactivity |
| QVHLVESGGGLVQAGGSLRLSCAASGRTFSTYAMGWYRQAPGTERELVAAISSGGGRTYYADSVKGRFTISRDNAKNTVYLQMNRLKPEDTAVYYCAADRYFRSSRSYEYWGQGTLVTVSS | low polyreactivity |
| QVQLVESGGGLVQRGCSLRLSCAASGSTFGYYTMGWYRQAPGKERELVSAISYSGGRTFYADSVKGRFTISRDNAKNTVYFQMISLKPEDHAVYYCNTRYIPSYLSHLDYWGQGTQVTVSS | high polyreactivity |
| QVQLVESGGGLVQAGGSLRLSCAASGFTFVSNAMVWSRQAPGKERELVADITSDGSTNYADSVKGRFTISRDNAKNTVYLQMNSLKPEDTAVYHCATDQRSNTWVNQFDYWGQGTQVTVSS | low polyreactivity |
| QVQLVESGGGLVQAGGSLRLSSAASGLNFQRNTMGWSRQAPVKERELVAAISRSGGSTYYADSVKGRFTISRDNAKNTVYLQMNSLKPEDTAVYYCAALIFRHRGKDDDYWGQGTQVTVSS | high polyreactivity |
| QVQLVESGGGLVQAGGSLRLSFAASGSIFVQYAMRWYRPAPGKERELVAAIDFSDTSTYYADSVKGRFTISRDNAKNTVYLHMNSLKPEDTAVYYCAAEEDSPCRSAIAEEEYWGQGTLVTVSS | low polyreactivity |
| QVQLVESGGGLVQAGGSLRLSCAASGNTFYDYGMGWYRQAPGKERELVAGIDGSSTYYADSVKGRFTISRDNAKNTVYLQMNSLKPEDTAVYYCAAYVGSYVSYRAYPRIYYYWGQGTQVTLSS | low polyreactivity |
| QVQLVESGGCLVQAGGSLRLSCAASGRISPDYAMGWYRQAPGTERELVATISSGAGTTYYADSVKGRFTISRDNAKNTVYLQMNSLKPEDTAVYYCAAEDPSEFDYWGQGTQVTVSS | low polyreactivity |
| QVQLVESGGGLVHAGGSIRLSCSASGRTVGVNMGWYRQSPGKERELVAVISSGDSTNYADSVKGRFTISRDNAKNTFYLQMNSLKQEDTAVYYCNAYGSDRLTLDDYWGQGTQVTVSS | low polyreactivity |
| QVQLVESGGGLVQAGGSLRLSCAASGRIFSGYAMGWYRQAPGKERELVAAITSGGSTNYADSVKGRFTISRDNAKNTVYLQMNSLKPEDTAVYYCAADSREVSTTAYYYWGQRTQVTVSS | low polyreactivity |
| QVQLVESGGGLVQAGGSLRLSCAASGSIFGEIAMGWYRQAPGKERELVAAISSGVSTNYADSVKGRFTISRDNAKNTVYLQMNSLKPEDTAVYYCAVDSLPNSPYDYWGHGTQVTVSS | low polyreactivity |
| QVQLVESRRGLVQAGGSLRLSCAASGRIFYRYALGWYRQAPGKEREFVAAISRSGGTTYYADSVKGRFTISRDNAKNTVYLQMNSLNPEDTAVYYCAAGGSFWYFSPRYGYWGQGTQVTVSS | high polyreactivity |
| QDQLVDSGGCLVQAGGSLSLSCAASGNTFNIYAMGWYRQAPGKEREFVAAITVSDTSTYYADSVKGRFTISRDNAKNTVYLKMHSLKPEDTSVYYCNADWWCTYDYYYWGQGTQGTVSS | low polyreactivity |
| QLQLVESGGGLVQAGGSLRLSCAASGRTFWYYAMGWYRQAPGKESELVAGISRGGSTNYADSVKGRFTISRDNAKNTVYLQMKSLKPADTAVYYCIVGRWYSQGTTGVFKGGYWGQGTQVTVSS | low polyreactivity |
| QVQLVETGGGLVQAGGSLRLSCAASGFTFPNAMGWYRQAPGKERELVATISSSGGSTYYADSVKGRFTISRDNAKNTVYLQMNSLKPEDTEVYYCAASTRQYWIYRAYRDEYWGQGTQVTVSS | low polyreactivity |

| Sequence | polyreactivity (PSR sort gate) |
| --- | --- |
| QVQLVESGGGLVQAGGSLRLSCAASGIIFAYYAMGWYRQAPGKERELVAAIDYSGASTYYADSVKGRFTISRDNAKNTVYLQMNSLKPEDTAVYYCNADDFGYASYEYWGQGTQVTVSS | low polyreactivity |
| QVQLVESGGGLVQAGGSLRLSCAASGSIFRYYAMGWYRRAPGKERELVAAISRRGSSTYYADSVKGRFTISRDNAKNTVYLQMNSLKPEDTAVYYCAAGDFKQYDYWGQGTQVTVSS | high polyreactivity |
| QVQLVESGGGLVQAGGSLRLSCAASGRIFGDNAMGWYRQAPGKERELVATISRGGTTNYADSVKGRFTISRDNAKNTVYLQMNSLKPEDTAVYYCNARSGGHGYSRYQTYLRYDYWGQGTQVTVSS | low polyreactivity |
| QVQLVESGGGLVQAGGSLRLSCAASGFTLHSYAMGWYRQAPGKERELVAAITTGGSTYYADSVKGRFTISRDNAKNTVYLQMNSLKPEDTAVYYCAADVPGNYRKYRYGRASSHDYWGQGTQVTVSS | low polyreactivity |
| QVQLVESGGGLVQAGGSLRLSCAASGSIFRYNAMGWYRQAPGKERELVAAIDWSGGTYYADSVKGRFTISRDNAKNTVYLQMNSLKPEDTAVYYCNARGSKYSSYWGYDYWGQGTQVTVSS | low polyreactivity |
| QVQLVESGGGLVQAGGSLRLSCAASGFIFGWYAMGWYRQAPGKERELVAVIRSGGRTNYADSVKGRFTISRDNAKNTVYLQMNSLKPEDTAVYDCNAVGGRGYGGGFWGQGTQVTVSS | high polyreactivity |
| QVQLVESGGGLDQAGGSLRLSCAASGITFDYYAIGWYRQAPGKERELVAAISRAGSTNYADSVKGRFTISRDNAKNTVYLQMNSLKPEDTAVYYCNNGYHSWSRLSQFGWSYDYWGQGTQVTVSS | high polyreactivity |
| QVQLVESGGGLVQAGGSLRLSFAASGRTFEKYAMGWYRQAPGKERELVAAISGSGGSTFYADSVKGRFTISRDIAKYTVYLQMISLKPEDSAVYYCAADSRSHPGDYWGQGTQVTVSS | low polyreactivity |
| QVQLVESGGGLVQAGGSLRLSCAASGFTFSYYAMGWYRQAPGKERELVAAISSGGSTYYADSVKGRFTISRDNAKNTVYLQMNSLKPEDTAVYYCNVLNYSSRHYLFSYDYWGQGTQVTVSS | high polyreactivity |
| QVQLVESGGGLVQAGGSLRLSCAASGSTFWFNAMGWYRQAPGKERELVAAIDSNTGSTSYADSVKGRFTISRDNAKNTVYLQMNSLIPEDTAVYYCNADYDFAKDRGDYWGQGTQVTVSS | low polyreactivity |
| QFQLVESGGGLVQAGGSLRLSCAASGSTFTQNTMGWYRQAPGKERELVAAISRRGGGTYYADSVKGRFTISRDNAKNTVYLQMNSLKPEDTAVYYCNAPYILTQQGGRRYDYWGQGTQVTVSS | high polyreactivity |
| QVQLVDSGGGLVQAGGSLRLSCADSGSIFSRNTMGWYRQAPGKERELVAGISSSGSRTYYADSVKGRFTISRDNAKNTVYLQMNSLKPEDTAFYYCAAGSQRRYYHTNCDSFNYSGQGTQVTVSS | low polyreactivity |
| QVQLVESGGGLVQAGGSLRLSCAASGSTFGVYAMGWYRQAPGKERELVASITSGTSTYADSVKGRFTISRDNAKNTVYLQMNSLKPEDTAVYYCAAEYLYFNLGYDYWGQGTQVTVSS | low polyreactivity |
| QVQLVESGGGLVQAGGSLRLSCAASGSTFRWNAMGWYRQAPWKERELVAAITWSGGRTYYADSVKGRFTISRDNAKNTVYLQMNSLKPEDTAVYYCAAVRGPEHWYDYYYWGQGTQVTVSS | high polyreactivity |
| QVQLVESGGGLVQAGGSLRLSCAASGFTFGINAMGWSRQAPGKERELVASISSGSSTTYADSVKGRFTISRDNAKNTVYLQMNRLKPEDTAVYYCNARPFHIYWRYDYWGQGTQVTVSS | low polyreactivity |
| QVQLVESGGGLVQAGGSLSLSCAASGSNFKAYAMGWYRQAPGKERELVAAITKSGGRTYYADSVKGRFTISRDNAKNTVYLQMKSLNPEDTAVYSCAAVFRPDSSAYRYYYWGQGTQVTVST | high polyreactivity |
| QVQLVDSGGGLVQAGGSLRLSCAASGRTFSYYGMGWYRQAPGQERELVACIRRRGGSTYYADSVKGRFTISRDNAKNNVSLQMNSLNPEDTAVYYCTAATYGDYSNLGYGYWGQGTQVTVSS | high polyreactivity |
| QVQLVESGGGLVQAGGSLRLSCAASGFTFRYYAMGWYRQAPGKEREFVAAIRSSGTTTSYADSVKGRFTISRDNAKNTVYLHMHSLKPEDTAVYYCAAGYFGPQQYYYWGQGTQVTVSS | high polyreactivity |
| QVQLVESGGGLVQAGGSLRLSCAASGFTFWYYAMGWYRQAPGKERELVAAITYTGDRTYYADSVKGRFTISRDNAKNTVYLQMNSLKREDTAVYYCDVYLGIRSGTANDYWGQGTQVTVSS | high polyreactivity |
| QVQLVESGGGLVQAGGSLRLSCAASGSNFTPYAMGWYRQAPGKERELVAAISGSGGSTRYADSVKARYTISRDNAKNTVYLQMNSLKPEDTAVYYCAADRYTYIWYHIYDYWGQGTQVTVSS | low polyreactivity |
| QDQLVESGGGLVQAGGSLRLSCAASGLIFGYYAMGWYRQAPGKERELVAVISYSGGSTYYADSVKGRYTISRDNAKNTVYFQMNSMKPEDTAVYYCNTYRAYYRHTKEYGYWGQGTLVTVSS | high polyreactivity |
